Test results from patent US20260193363A1.

Key:
[1] = target: EGFRvIII on F98npEGFRvIII cells (rat glioma F98 transfected with nonphosphorylated EGFRvIII); assay: flow cytometry, antibodies added at 2 µg/ml, F98-npEGFRvIII cells
[2] = target: EGFR loop peptide, His-tagged (EGFRlp-HIS) (human); assay: BLI (Octet Red96), His-tagged antigen on Ni-NTA biosensors, antibody in solution, 30 C
[3] = target: EGFR and EGFRvIII on GBM39 cells (patient derived xenograft glioblastoma line); assay: flow cytometry on GBM39 cells, antibody at 0.2 µg/ml
[4] = target: EGFR and EGFRvIII on GBM39 cells (patient derived xenograft glioblastoma line); assay: flow cytometry on GBM39 cells, antibody at 20 µg/ml
[5] = target: EGFR and EGFRvIII on GBM39 cells (patient derived xenograft glioblastoma line); assay: flow cytometry on GBM39 cells, antibody at 2 µg/ml
[6] = target: EGFR loop peptide, His-tagged (EGFRlp-HIS) (human); assay: BLI (Octet Red96), His-tagged antigen on Ni-NTA biosensors, conjugate in solution, 30 C

B1: monoclonal antibody 11G3 (antibody, V domains shown)
VH: QVQLKQSGPSLVQPSQSLSITCTVSGFSLTNYGVHWVRQSPGKGLEWLGVMWRGGRTDYNAAFMSRLSITKDNSRSQVFFKMNSLQTDDAAIYYCAKNGPFGNFAGYWGQGTLVTVST
VL: DIVMSQSPSSLPVSVGEKVSLTCKSSRSLLDNQKHYLAWYQQKPGQSPKLLIYWASTRESGVPDRFTGSGSGTEFTLTISSVKAEDLAVYYCQQFYNYPYTFGGGTKLEIK
B1 was tested, and the Median : PE-A [1] was 1080.

B2: monoclonal antibody 40H3 (antibody, V domains shown)
VH: QVQLKQSGPGLVQPSQSLSITCTVSGFSLTNYGIHWLRQSPGKGLEWLGMMWRGGGTDYNAAFISRLTITKDTSKSQVFFRMNNLQTNDTAIYYCARKGVGMGLGYWGQGTSVTVSS
VL: DIQMTQSPASQSASLGESVTITCLASQTIGTWVAWYQQKPGRSPQLLIYGATNLADGVPSRFSGSGSGTKFSFKISSLQAEDFVSYYCQQLYSNPYTFGGGTKLEIK
For B2, the Kd [2] was 1110 pM, the koff [2] was 6.07e-05 s⁻¹ and the kon [2] was 54900 M⁻¹ s⁻¹. For the same binder, the median fluorescent intensity [3] was 9450, the median fluorescent intensity [4] was 8600 and the median fluorescent intensity [5] was 10700.

B3: 40H3 MMAE antibody drug conjugate (antibody, V domains shown)
VH: B2 VH
VL: B2 VL
B3 showed a Kd [6] of 84.6 pM, a koff [6] of 2.24e-05 s⁻¹ and a kon [6] of 265000 M⁻¹ s⁻¹.

B4: 40H3 DM1 antibody drug conjugate (antibody, V domains shown)
VH: B2 VH
VL: B2 VL
B4 was tested, and the Kd [6] was 442 pM, the koff [6] was 8.95e-05 s⁻¹ and the kon [6] was 202000 M⁻¹ s⁻¹.
